Here are results for 1 protein from doi:10.1101/2021.02.05.428650 (bioRxiv, 2021).

As usually defined, the stoichiometry N is the number of molecules, sites or subunits per partner or assembly.

Where “and” joins values, the source holds several entries; their conditions need not be identical. Identical values can stand only once.

The data set concerns the molecule itself. The data set is described as follows: SDS-PAGE and Western blot after detergent removal. (Immunoblotting shows a protein as a band on a membrane.)

As for MIELSLIDFYLCFLAFLLFLVLIMLIIFWFSLELQDHNETCHA (natural protein) [ORF7b from SARS-CoV-2], the “stoichiometry N” value was ≤ 10 and 5.
